{"source": "patent US20090048196A1", "about": "(University of California, published 2009)", "binders": {"B1": {"name": "bovine STRA6 (wild-type) (receptor)", "chain": "MSTQAAGNQTSSGATDSEDSYDSWYIDEPQGGQELQPEGLVPSCQPNVPPSLYHTCLAVLSILVLFLLAMLVRRRQLWPRCGHGRPGLPSPVDFLTGDRPRTVPAAVFMVLFSSLCLLLPTEDPLPFLSLASPPGRDGEAETSRGPWKILALLYYPALYYPLAACATVRHGAAHLLGSLLSWAHLGVQVWQRAECPESPKIYKYYSLLASLPLLLGLGFLSLWYPVQLVRSFGHGAATGSKGLQSSYSEEYLRTLLCQKKLKSSSHTCKRGFASQAWMYFRHSVYIPQQGFRLPLKLVLSVTLTGTAIYQVALLLLVGVVPTIQKVRAGITTDVSYLLAGFGIVLSEDRQEVVELVKHHLWALEVCYISALVLSCLLTFLMLVHSLVTHRTNLRALHRGGALDIGPLTQSPRPSRQAIFCWMSFTAYQTAFTCLGLLVQQILFFLGTLTLAFLVFMPMLHGRNLLLLHYLKSSWPFWLTLALAVTLQNAAAHWAFLDTHHGRPGLTNRRALYAATFLLFPVNVLVGTMVAAWRVLLSALYNAVHLGRMDLSLLPLRAATLDPGYHTYCNFLRMEASQSHPAATAFCALLLRTQRPKPRATPQDGLRLGEEEEGIQLLQTKDLVAKGAGPRARQGRARWGLAYTLLHNPALQAFRKTALPGARPNGAQP", "notes": "also called RBP receptor; WT"}}, "molecular_target": "N-terminal alkaline phosphatase-tagged RBP (AP-RBP fusion protein) (human, UniProt P02753 19-201)", "assay": "AP-RBP binding to live COS-1 cells transfected with bovine STRA6, AP activity read-out", "experimental": "The cells were then washed twice with PBS⁺ and fixed in fresh 2% formaldehyde in PBS⁺ at room temperature for 10 min. After 3 more PBS washes, the cells were heated in PBS for 1 h at 65° C. […] The reaction was stopped by washing cells twice with PBS containing 1 mM CaCl₂. The cells were then lysed in 200 μl of cold PBS containing 1% Triton X-100 and protease inhibitors per well. The cell lysates were centrifuged at 3,000 g at 4° C. for 5 min. The supernatants were removed and heated at 65° C. for 1 h. Twenty microliters of the heated lysate were mixed with 200 μl of pNPP (Sigma) and incubated at 37° C. for 1 h for the AP color reaction. The reactions were stopped by adding 50 μl 3 M NaOH and were transferred to a 96-well plate for reading in a microplate reader at 405 nm."}
{"binder": "B1", "values": [{"measurement": "Kd", "result": 59, "unit": "nM"}]}
